Source: US20110262366A1
No end group written: not given here.

Legend:
VEGF receptors on HUVECs = experiment: competition with ^125I-VEGF on HUVECs
[1] = biological target: endothelial cell receptor on HAEC (human aortic endothelial cells); experiment: competition against 5% DPPE-GTKPPR microbubbles (competitor) on HAEC, static
[2] = biological target: endothelial cell receptor on HAEC (human aortic endothelial cells); experiment: competition, 10 µM free TKPPR against TKPPR-beads (competitor) on HAEC, static, n = 11
[3] = biological target: endothelial cell receptor on HAEC (human aortic endothelial cells); experiment: competition, 500 µM free TKPPR against TKPPR-beads (competitor) on HAEC, static, n = 11
[4] = biological target: endothelial cell receptor on HAEC (human aortic endothelial cells); experiment: competition, 25 µM free TKPPR against 1% BRU-114 microbubbles (competitor) on HAEC, static
[5] = biological target: endothelial cell receptor on HAEC (human aortic endothelial cells); experiment: competition, 25 µM free TKPPR against 1% BRU-292 microbubbles (competitor) on HAEC, static
[6] = biological target: endothelial cell receptor on HAEC (human aortic endothelial cells); experiment: competition, 50 µM free TKPPR against 1% BRU-114 microbubbles (competitor) on HAEC, static
[7] = biological target: endothelial cell receptor on HAEC (human aortic endothelial cells); experiment: competition, 10 µM free TKPPR against 10% BRU-114 microbubbles (competitor) on HAEC, static
[8] = biological target: endothelial cell receptor on HAEC (human aortic endothelial cells); experiment: competition, 50 µM free TKPPR against 1% DPPE-GTKPPR microbubbles (competitor) on HAEC, static
[9] = biological target: endothelial cell receptor on HAEC (human aortic endothelial cells); experiment: competition, 100 µM free TKPPR against 5% DPPE-GTKPPR microbubbles (competitor) on HAEC, static
[10] = biological target: endothelial cell receptor on HAEC (human aortic endothelial cells); experiment: competition, free TKPPR 10 µM (head prints 10 µmol) against 1% DPPE-GTKPPR microbubbles (competitor) on HAEC, static
[11] = biological target: endothelial cell receptor on HAEC (human aortic endothelial cells); experiment: competition, free TKPPR 100 µM (head prints 100 µmol) against 1% DPPE-GTKPPR microbubbles (competitor) on HAEC, static
[12] = biological target: endothelial cell receptor on HAEC (human aortic endothelial cells); experiment: competition, free TKPPR 100 µM (head prints 100 µmol) against 5% DPPE-GTKPPR microbubbles (competitor) on HAEC, static

TKPPR-OH [TKPPR-OH (L-threonyl-L-lysyl-L-prolyl-L-prolyl-L-arginine)]
IC50 (VEGF receptors on HUVECs): 250 µM | % more bubbles bound [1]: 19% | % Inhibition [2]: 30.8% | % Inhibition [3]: 70.6% | Bubbles Bound in presence of competitor [4]: 75 bubbles | Bubbles Bound in presence of competitor [5]: 718 bubbles | Bubbles Bound in presence of competitor [6]: 9 bubbles | Bubbles Bound in presence of competitor [7]: 1090 bubbles | Average % Inhibition [8]: 92.7% | HAEC bubbles bound in presence of competitor [9]: 58 bubbles | Bubbles Bound in presence of competitor [10]: 96 bubbles | Bubbles Bound in presence of competitor [11]: 5 bubbles | Bubbles Bound in presence of competitor [12]: 62 bubbles
